Test results from patent US20200223906A1 (Adimab, published 2020).
Residue numbers refer to the chain shown, from its start.

B1: ADI-18942 (antibody, V domains shown)
VH: QVQLQESGPGRVKPSQTLSLTCTVSGVSVTINDYYWTWLRQSPGKGLEWIGNIYNSGSTYQNPSLQSRVTMSVDTAKNHFSLKLTSVTAADTAVYYCARDLGTANNYYFGMDVWGLGTTVTVSS
VL: EIVMTQSPATLSLSPGERATLSCRASQSVSTYLAWYQQKPGQAPRLLIYNGSNRVTGTPARFSGSGSGTDFTLTISSVEPEDFAVYYCQQRSNWPPYTFGQGTKVEIK
notes: full-length IgG from yeast; also called Antibody Number 295; Ab # 295
B2: ADI-18968 (antibody, V domains shown)
VH: EVQLVESGPGLVKPSQTLSLTCTVSDVLISSGDYYWSWIRQSPGKGLEWLGYIYYTGKTKYNPSLESRITMSVDTSKNQFSLRLSSVTAADTAVYFCTRDLGYSTSSPSFYYGMDVWGQGTTVTVSS
VL: EIVLTQSPATLSLSPGERATLSCRASQSVGTYLAWYQQKPGQAPRLLIYDASYRVTGIPARFSASGSATDFTLTISSLEPEDFAVYFCQQRTNWPITFGQGTRLEIK
notes: full-length IgG from yeast
B3: ADI-18922 (antibody, V domains shown)
VH: QVQLQESGPGRVKPSETLSLTCSVADGSISSGHYYWGWVRQPPGKGLEWIATIHDSGATYYNPSLQSRVTISVDTSKNQFSLKVNSVTAADTAVYYCASRRGSGWFFDSWGQGTLVTVSS
VL: DIVLTQSPATLSVSPGERVTLSCRASHSVNYNLAWYQQKPGQAPRLLIYGSSTRATGLPARFSGSGSGTEFTLTISSLQSEDFAIYYCQQYNNWPPGGTFGQGTKVEIK
notes: full-length IgG from yeast; also called Antibody Number 276; Ab # 276
B4: ADI-18947 (antibody, V domains shown)
VH: QVQLVQSGGGVVQSGRSLRLSCAASGFTFSDNGMHWVRQAPGKGLEWVAGIFHDGSNKQYAESVKGRFIISRDNSKNTLYLQMNSLRAEDTALYFCARAPYDIWSGYCLDYWGQGTLVTVSS
VL: DIRMTQSPATLSLSPGESATLSCRASQSVINNLAWYQQRPGQAPRLLIYGASTRATGIPARFSGSGSETEFTLTISSLQSEDFAVYHCQQYSIWPQTFGQGTKLEIK
notes: full-length IgG from yeast
B5: ADI-18896 (antibody, V domains shown)
VH: B4 VH with Q1E, V5L, Q6E, H53Y, E62D, I69T, N77S, L93V, F95Y
VL: B4 VL with R3Q, S7T, L13M, S18R, I30N
notes: full-length IgG from yeast
B6: ADI-18899 (antibody, V domains shown)
VH: B4 VH with Q1E, Q6E, H53Y, E62D, I69T, N77S, L93V, F95Y
VL: B4 VL with M4L, L13M, S18R, I30N, L104V, E105D
notes: full-length IgG from yeast
B7: ADI-18955 (antibody, V domains shown)
VH: B4 VH with Q1E, Q6E, T28I, H53Y, E62D, I69T, N84K, L93V, F95Y
VL: B4 VL with R3Q, M4V, L13M, S18R, I30N, L104V
notes: full-length IgG from yeast; also called Antibody Number 306; Ab # 306
B8: ADI-18948 (antibody, V domains shown)
VH: EVQLLESGGGVVQSGRSLRLSCVASGFTFSDSGMHWVRQAPGKGLEWVAGLFYDGSNKQYADSVKGRFTISRDNSKSTLYLQMNSLRAEDTAVYYCARAPYDIWSGYCLDYWGQGTLVTVSS
VL: B4 VL with D1E, R3V, M4L, S12Y, L13M, S18R, I30N
notes: full-length IgG from yeast; also called Antibody Number 300; Ab # 300
B9: ADI-18980 (antibody, V domains shown)
VH: QVQLVQSGAEVKKPGESLKISCKGFGYSFNSYWIAWVRQMPGKGLECMGIIYPGDSDTRYSPSFQGQVTISVDKSITTAYLQWSSLKVSDTAMYYCAKSNVGNTGWNYWGQGTLVTVSS
VL: EIVLTQSPATLSLSPGERATLSCRASHSVATDLAWYQQKPGQAPRLLIYDASKRATDVPARFSGSGSGTDFTLTISSLEPEDVAVYYCQEVRNWPPCTFGQGTKVDIK
notes: full-length IgG; also called Antibody Number 328
B10: ADI-18918 (antibody, V domains shown)
VH: QVQLVQSGAEVKKPGESLKISCKGSGYSFSSFWIGWVRQMPGKGLEWMGIIYPGDSDTRYSPSFQGQVTMSADTSINTAYLQWNSVKASDTAIYYCARLPVGSYYYFNLWGRGTLVTVSS
VL: EIVMTQSPATLSVSPGESATLFCRASQSISSDLAWYQQRPGQAPRLLIYDASTRATGVPARFSATGSEAEFTLTISGLQSEDFAVYYCQQYNNWLSWTFGQGTKLEIK
notes: full-length IgG from yeast
B11: ADI-18924 (antibody, V domains shown)
VH: QVQLVQSGAEVKKPGESLKISCQGSGYSFSSFWIVWVRQMPGKGLEWMGSIYPGDSDTRYTPSFQGQVTISADKSTSTAYLQWNSLKPSDTAMYYCARCSLSCDYYGVNLWGQGTTVTVSS
VL: QSVVTQPPSVSGAPGQRVTISCSGSSSNIGARSDVHWYQQLPGKAPKLLIYGNTNRPLGVPDRFSGSTSGTSASLAISGLQAEDEGYYYCQSYDSSLSGFYVFGTGTKLTVL
notes: full-length IgG from yeast
B12: ADI-18946 (antibody, V domains shown)
VH: QVQLVQSGGGVVQPGRSLRLSCAASGFTFSDYAMHWVRQAPGKGLEWVAIISYDANNKYYADSVKGRFTISRDNSKNTVYLQMNSLRPEDTAVYYCAKEEWLVPAYWGQGILVTVSS
VL: QSVLTQPASVSGSPGQSITISCTGTSSDVGGYNYVSWYQQHPGKAPKLLIYEVSNRPSGVSNRFSGSKSGNTASLTISGLQPEDEADYYCSSYSTNSAPFGTGTKLTVL
notes: full-length IgG from yeast
B13: ADI-18876 (antibody, V domains shown)
VH: QVQLQESGPGLVKPSQTLSLTCTVSGPSISSGDYYWTWIRQPPGKGLEWIGYIYNSGSTDYNPSLKSRITMSLDRSKNQFSLNLSSVTAADTAVYFCARDVGTLVLPTVAYYYGMDVWGQGTTVTVSS
VL: EIVLTQSPGTLSLSPGERATLSCRASESISSSYLAWYQQKPGQAPRLLIYDASSRATGIPDRFSGSGSGTDFTLTISSLEPEDFAVYYCQQYGSSPLVTFGPGTKVDIK
notes: full-length IgG from yeast
B14: ADI-18938 (antibody, V domains shown)
VH: EVQLLESGGGLVQPGGSLRLSCAASGFTFSNYWMHWVRQAPGKGLVWVSRISGDGSDTTYADSVEGRFTISRDNARSTLYLQLNSLTGDDTAVYYCARDLWTTSPYFDLWGQGTLVTVSS
VL: EIVLTQSPGTLSASIGDRVTITCRASQSLNGWLAWYQQKPGKAPRLLIYKSSSLESGVPSRFSGSASGTEFTLTISSLQPDDFATYYCQQYNSWAFGQGTKVDVK
notes: full-length IgG from yeast; also called Antibody Number 291; Ab # 291

What was measured:
[1] = target: T1, RSV F subtype A, furin-cleaved ectodomain stabilized in the prefusion conformation (DS-Cav1) (Respiratory syncytial virus subtype A, UniProt P03420 26-524); assay: BLI, IgG on AHQ sensor, 100 nM antigen
T1 construct: extracellular domain; Trimeric soluble antigen; also called Prefusion subtype A

[2] = target: T2, RSV F subtype B, furin-cleaved ectodomain stabilized in the prefusion conformation (DS-Cav1) (Respiratory syncytial virus subtype B); assay: BLI, IgG on AHQ sensor, 100 nM antigen
T2 construct: extracellular domain; Trimeric soluble antigen; also called Prefusion subtype B

[3] = target: T3, RSV F subtype B, furin-cleaved ectodomain stabilized in the postfusion conformation (F ΔFP) (Respiratory syncytial virus subtype B); assay: BLI, IgG on AHQ sensor, 100 nM antigen
T3 construct: extracellular domain; Trimeric soluble antigen; also called Postfusion subtype B

[4] = target: T4, RSV F subtype A, furin-cleaved ectodomain stabilized in the postfusion conformation (F ΔFP) (Respiratory syncytial virus subtype A, UniProt P03420 26-109; P03420 147-524); assay: BLI, IgG on AHQ sensor, 100 nM antigen
T4 construct: extracellular domain; Trimeric soluble antigen; also called Postfusion subtype A

[5] = target: RSV F protein of subtype B (18537) on recombinant mKate-RSV virus (Respiratory syncytial virus subtype B …, UniProt P13843 26-574); assay: cell-based or functional assay
[6] = target: RSV F protein of subtype A (strain A2) on recombinant mKate-RSV virus (Respiratory syncytial virus subtype A …, UniProt P03420 26-574); assay: cell-based or functional assay
[7] = target: RSV F protein of subtype A (strain A2) on recombinant mKate-RSV (respiratory syncytial virus subtype A …, UniProt P03420 26-574); assay: cell-based or functional assay
[8] = target: RSV F protein of subtype B (18537) on recombinant mKate-RSV (respiratory syncytial virus subtype B …, UniProt P13843 26-574); assay: cell-based or functional assay
[9] = target: T5, RSV F ectodomain stabilized in the postfusion conformation (F ΔFP), subtype B (respiratory syncytial virus subtype B, UniProt P13843 26-109; P13843 147-524); assay: BLI (Octet), IgG on AHQ sensor, 100 nM antigen
T5 construct: extracellular domain; Trimer; also called Postfusion subtype B

Binder | Kd [1] [nM] | Kd [2] [nM] | Kd [3] [nM] | Kd [4] [nM] | Neut IC50 (µg/ml) subtype B [5] [µg/mL] | Neut IC50 (µg/ml) subtype A [6] [µg/mL] | Neut IC50 subtype A [7] [µg/mL] | Neut IC50 subtype B [8] [µg/mL] | Kd [9] [nM]
B1 | 0.865 | 0.512 | 0.258 | 0.281 | 0.614 | 0.374 |  |  | 
B2 | 1.98 | 0.602 | 0.305 | 0.438 | 0.541 | 0.909 |  |  | 
B3 | 3.47 | 5.27 | 0.287 | 0.322 | 5.05 | > 10 |  |  | 
B4 | 2.45 | 2.2 | 0.282 | 0.296 | 3.6 | 1.3 |  |  | 
B5 | 2.27 | 1.81 | 0.27 | 0.279 | 4.72 | 1.1 |  |  | 
B6 | 1.92 | 1.59 | 0.251 | 0.266 | 2.7 | 0.742 |  |  | 
B7 | 0.599 | 2.37 | 0.25 | 0.256 | 3.12 | 1.93 |  |  | 
B8 | 4.55 | 2.1 | 0.247 | 0.257 | 4.35 | 1.12 |  |  | 
B9 |  |  |  |  |  |  | 3.6 | > 10 | 0.35
B10 |  |  | 0.409 | 0.567 | 4.59 | 0.377 |  |  | 
B11 | 6.48 |  | 0.321 | 0.411 | 1.07 | 0.572 |  |  | 
B12 | 0.158 | 0.157 | 0.166 | 0.206 | 0.227 | 0.093 |  |  | 
B13 | 0.707 | 0.316 | 0.179 | 1.71 | 0.179 | 0.037 |  |  | 
B14 | 0.165 | 0.15 | 0.168 | 0.216 | 4.25 | 0.837 |  |  | 
